Experimental data published in patent US20210395716.

Biological target: β-amyloid peptide (1-42) (UniProt P05067)
Sequence (P05067 whole entry, looked up, tested part not stated): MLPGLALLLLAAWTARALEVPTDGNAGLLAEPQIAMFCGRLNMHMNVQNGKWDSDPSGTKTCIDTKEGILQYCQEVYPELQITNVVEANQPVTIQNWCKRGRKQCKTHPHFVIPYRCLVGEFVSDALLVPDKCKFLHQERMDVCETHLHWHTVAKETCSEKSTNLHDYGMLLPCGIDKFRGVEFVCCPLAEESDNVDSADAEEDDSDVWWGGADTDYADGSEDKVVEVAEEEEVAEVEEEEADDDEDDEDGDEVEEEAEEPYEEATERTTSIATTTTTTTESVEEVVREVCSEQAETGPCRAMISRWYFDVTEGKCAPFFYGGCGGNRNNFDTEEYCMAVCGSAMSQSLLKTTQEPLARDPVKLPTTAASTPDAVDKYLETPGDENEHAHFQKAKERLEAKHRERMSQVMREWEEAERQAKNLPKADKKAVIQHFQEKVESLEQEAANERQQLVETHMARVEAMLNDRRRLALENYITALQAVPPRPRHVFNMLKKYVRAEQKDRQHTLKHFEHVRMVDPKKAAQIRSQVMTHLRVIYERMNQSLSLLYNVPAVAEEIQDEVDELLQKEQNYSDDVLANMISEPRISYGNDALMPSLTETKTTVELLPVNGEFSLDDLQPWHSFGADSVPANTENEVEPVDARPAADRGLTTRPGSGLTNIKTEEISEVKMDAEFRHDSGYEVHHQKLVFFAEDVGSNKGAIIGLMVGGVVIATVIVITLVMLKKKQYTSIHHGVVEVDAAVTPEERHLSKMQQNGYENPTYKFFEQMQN

yeast NEP (yNEP)
Abeta HPLC, per hr. (sample yNEP): 0.46 per hr.
Abeta HPLC, rate (sample yNEP) (million sq unt/min): 0.0137
Abeta HPLC, units/µL (sample yNEP): 0.0274 units/µL
Abeta HPLC, units/µg (sample yNEP): 0.008 units/µg
